Laboratory results taken from the Immune Epitope Database (IEDB).

Assays:
Details in all cases: source organism: Rickettsia akari str. Hartford
HLA-A*69:01 = test: IEDB peptide-MHC binding, purified MHC/competitive/fluorescence; filed as Kd, often an IC50 or EC50 that approximates it; ≥ and ≤ were set here for values at or beyond the usual limits of such assays
HLA-A*02:12 = test: as above
HLA-A*30:01 = test: as above
HLA-B*15:01 = test: as above
HLA-A*02:01 = test: as above
HLA-A*03:01 = test: as above
HLA-A*29:02 = test: as above
HLA-A*66:01 = test: as above
HLA-B*14:02 = test: as above
HLA-A*24:03 = test: as above
HLA-B*53:01 = test: as above
HLA-B*08:01 = test: as above
HLA-A*02:19 = test: as above
HLA-B*44:02 = test: as above
HLA-B*27:05 = test: as above
HLA-B*27:03 = test: as above
HLA-A*02:03 = test: as above
HLA-A*01:01 = test: as above
HLA-B*39:01 = test: as above
HLA-A*11:01 = test: as above
HLA-A*30:02 = test: as above
HLA-B*57:01 = test: as above
HLA-B*15:17 = test: as above
HLA-C*15:02 = test: IEDB peptide-MHC binding, purified MHC/direct/fluorescence; filed as Kd, often an IC50 or EC50 that approximates it; ≥ and ≤ were set here for values at or beyond the usual limits of such assays

Sequence: FTARIIIFS
- Kd (HLA-A*69:01): ≥ 20 µM
- Kd (HLA-A*02:12): ≥ 20 µM
- Kd (HLA-A*30:01): ≥ 5 µM
- Kd (HLA-B*15:01): ≥ 20 µM
- Kd (HLA-A*02:01): ≥ 20 µM
- Kd (HLA-A*03:01): ≥ 20 µM
- Kd (HLA-A*29:02): ≥ 20 µM
- Kd (HLA-A*66:01): 3 µM
- Kd (HLA-B*14:02): ≥ 5 µM
- Kd (HLA-A*24:03): ≥ 20 µM
- Kd (HLA-B*53:01): ≥ 5 µM
- Kd (HLA-B*08:01): ≥ 5 µM
- Kd (HLA-A*02:19): ≥ 20 µM
- Kd (HLA-B*44:02): ≥ 5 µM
- Kd (HLA-B*27:05): ≥ 5 µM
- Kd (HLA-B*27:03): ≥ 20 µM
- Kd (HLA-A*02:03): ≥ 20 µM
- Kd (HLA-A*01:01): ≥ 5 µM
- Kd (HLA-B*39:01): ≥ 20 µM
- Kd (HLA-A*11:01): ≥ 5 µM
- Kd (HLA-A*30:02): ≥ 5 µM
- Kd (HLA-B*57:01): ≥ 20 µM
- Kd (HLA-B*15:17): ≥ 20 µM
- Kd (HLA-C*15:02): ≥ 20 µM
